Measured values reported in article PMC7438732, “The H^+-Translocating Inorganic Pyrophosphatase From Arabidopsis thaliana Is More Sensitive to Sodium Than Its Na^+-Translocating Counterpart From Methanosarcina mazei” (Frontiers in Plant Science, 2020).

Substrate: O=P(O)(O)OP(=O)(O)O
Assay: cells, lysate or membranes
Details: 0 mM added NaCl, 100 mM KCl, pH 7.2, 30 °C, Mg2PPi substrate without excess Mg2+, Na+ from Na4PPi present

B1: AVP1 (Arabidopsis thaliana) (protein)
chain: MVAPALLPELWTEILVPICAVIGIAFSLFQWYVVSRVKLTSDLGASSSGGANNGKNGYGDYLIEEEEGVNDQSVVAKCAEIQTAISEGATSFLFTEYKYVGVFMIFFAAVIFVFLGSVEGFSTDNKPCTYDTTRTCKPALATAAFSTIAFVLGAVTSVLSGFLGMKIATYANARTTLEARKGVGKAFIVAFRSGAVMGFLLAASGLLVLYITINVFKIYYGDDWEGLFEAITGYGLGGSSMALFGRVGGGIYTKAADVGADLVGKIERNIPEDDPRNPAVIADNVGDNVGDIAGMGSDLFGSYAEASCAALVVASISSFGINHDFTAMCYPLLISSMGILVCLITTLFATDFFEIKLVKEIEPALKNQLIISTVIMTVGIAIVSWVGLPTSFTIFNFGTQKVVKNWQLFLCVCVGLWAGLIIGFVTEYYTSNAYSPVQDVADSCRTGAATNVIFGLALGYKSVIIPIFAIAISIFVSFSFAAMYGVAVAALGMLSTIATGLAIDAYGPISDNAGGIAEMAGMSHRIRERTDALDAAGNTTAAIGKGFAIGSAALVSLALFGAFVSRAGIHTVDVLTPKVIIGLLVGAMLPYWFSAMTMKSVGSAALKMVEEVRRQFNTIPGLMEGTAKPDYATCVKISTDASIKEMIPPGCLVMLTPLIVGFFFGVETLSGVLAGSLVSGVQIAISASNTGGAWDNAKKYIEAGVSEHAKSLGPKGSEPHKAAVIGDTIGDPLKDTSGPSLNILIKLMAVESLVFAPFFATHGGILFKYF
Which K0.5 does the source give for B1 here?
The K0.5 was 0.14 ± 0.08 mM.
